These results are taken from patent US20170369523A1, “TEMPLATE-FIXED BETA-HAIRPIN PEPTIDOMIMETICS THAT ARE LIGANDS FOR G-PROTEIN-COUPLED RECEPTORS (GPCRS) AND ARE MODULATORS OF TRANSCRIPTION FACTORS AND COACTIVATORS” (POLYPHOR AG, priority 2008, published 2017).

The nature of data set [1]: in vitro. The format is cell-based. The following applies: human. Here is the method:
(§1) The cytotoxicity of the peptides to HELA cells (Acc57) and COS-7 cells (CRL-1651) was determined using the MTT reduction assay. Briefly, the method was as follows: 7000 HELA cells/well and 4500 COS-7 cells/well were seeded and grown in 96-well microtiter plates for 24 h at 37° C. at 5% CO2. Thereafter, time zero (Tz) was determined by MTT reduction (see below). The supernatant of the remaining wells was discarded, and fresh medium and compounds in serial dilutions (12.5, 25 and 50 μM, triplicates) were pipetted into the wells. After incubation of the cells for 48 h at 37° C. at 5% CO2 the supernatant was discarded again and 100 μL MTT reagent (0.5 mg/mL in RPMI1640 and DMEM, respectively)/well was added. Following incubation at 37° C. for 2 h the media were aspirated and the cells were spiked (100 μl isopropanol/well). The absorbance of the solubilized formazan was measured at 595 nm (OD595peptide). For each concentration averages were calculated from triplicates. The percentage of growth was calculated as follows: (OD595peptide-OD595Tz-OD595Empty well)/(OD595Tz-OD595Empty well)×100%. The GI50 (Growth Inhibition) concentrations were calculated for each peptide by using a trend line function for the concentrations (50, 25, 12.5 and 0 μM), the corresponding percentages and the value 50, (=TREND (C50:C0,%50:%0,50).

Data set [2] in a line: in vitro. Type of data set: cell-based. The following applies: African green monkey. The protocol: as §1
Data set [3] deals with human red blood cells (hRBC). The format is cell-based. The conditions noted are these: red cells of human, 1 h. Here is the method: The peptides were tested for their hemolytic activity against human red blood cells (hRBC). Fresh hRBC were washed three times with phosphate buffered saline (PBS) and centrifuged for 10 min at 2000×g. Compounds (100 μM) were incubated with 20% hRBC (v/v) for 1 h at 37° C. The final erythrocyte concentration was approximately 0.9×10^9 cells/mL. A value of 0% and 100% cell lyses, respectively, was determined by incubation of hRBC in the presence of PBS alone and 0.1% Triton X-100 in H2O, respectively. The samples were centrifuged, the supernatants were 20-fold diluted in PBS buffer and the optical densities (OD) were measured at 540 nm. The 100% lyses value (OD540H2O) gave an OD540 of approximately 1.3-1.8. Percent hemolysis was calculated as follows: […]

Data set [4] can be described thus: Plasma stability, human plasma. Type of data set: in vitro ADME. The following applies: 37° C., sampled up to 240 min. The protocol:
(§2) The stability of the peptides in human and mouse plasma was determined by applying the following method: 315 μl/deep well of freshly thawed human plasma (Basler Blutspende-dienst) and mouse plasma (Harlan Sera-Lab, UK), respectively, were spiked with 35 μl/well of compound in PBS (100 μM, triplicate) and incubated at 37° C. At t=0, 15, 30, 60, 120 and 240 min aliquots of 50 μl were transferred to filtration plate wells containing 150 μl/well of acetonitrile. Following shaking for 2 min the occurred suspensions were filtrated by vacuum and finally. 100 μl of each filtrate were transferred to a propylene microtiter plate, and analyzed by LC/MS as follows: Column: Waters, XBridge C18, mobile phases: (A) water+0.1% formic acid and (B) acetonitrile/water, 95/5 (v/v)+0.1% formic acid, gradient: 5%-100% (B) in 2 minutes, electrospray ionization, MRM detection (triple quadrupole). The peak areas were determined and triplicate values were averaged. The stability was expressed in percent of the initial value at t=0. (tx/t0×100). By using the TREND function of EXCEL (Microsoft Office 2003) T1/2 were determined.

Data set [5] can be described thus: Plasma stability, mouse plasma. Type of data set: in vitro ADME. The following applies: 37° C., sampled up to 240 min. The protocol:
as §2

In the next data set the target is T1, NCoA-1 (UniProt Q15788 257-385, limits assumed).
T1 construct: also called SRC-1
T1 sequence (looked up): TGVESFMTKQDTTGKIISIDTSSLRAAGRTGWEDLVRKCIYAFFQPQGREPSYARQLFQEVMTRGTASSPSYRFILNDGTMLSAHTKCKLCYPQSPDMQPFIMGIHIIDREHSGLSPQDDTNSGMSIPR
Briefly: competition fluorescence polarization; displacement of FluoSTAT6 from NCoA-1. The protocol: The mixtures were shaken thoroughly. Fluorescence polarization was measured on a SPECTRAmax M5 spectrometer (Molecular device) following 5-30 min incubation at room temperature. FluoSTAT6 was excited at 490 nm and emission polarization was detected at 525 nm. 40 intensity measurements were collected for each well, 20 at horizontal position of the dynamic polarizer, 20 at parallel position. As the fraction of FluoSTAT6 bound to NCoA-1 is correlated to the fluorescence polarization (FP), after normalization, the fraction of bound FluoSTAT6 (B) was determined, and the KD was calculated according to B=[(1+P/R+KD/R)−((1+P/R+KD/R)²−4P/R)^{0.5}]/2, wherein P is the total probe concentration, R the total protein concentration and KD the dissociation constant (M. H. Roehrl, J. Y. Wang, G. Wagner, Biochemistry 2004, 3, 16056).
To determine the Kᵢ values of potential inhibitors of the STAT6/NCoA-1 interaction (competition fluorescence polarization) the compounds (dilution series from 0 to 100 μM final concentration) dissolved in HEPES buffer (10 mM HEPES, 150 mM NaCl, 3.4 mM EDTA, 0.1% BSA) were dispensed in a black 96 well plate (Greiner) and FluoSTAT6 (200 nM final concentration) in HEPES buffer was added. The mixture was completed by a HEPES buffer solution of NCoA-1 (1 μM final concentration) and processed as described above. STAT6Y (C-terminal tyrosine extended STAT6 794-814 peptide) was used as a positive control. As the total fluorescence intensity of FluoSTAT6 remains similar for all samples, the fraction of peptide bound to NCoA-1 is correlated to the fluorescence polarization.
Following normalization data were fitted with IGORpro Software® (WaveMetrics, Lake Oswego, Oreg., USA) to a sigmoid equation to determine IC₅₀ values.
For orientation: In fluorescence polarisation assays a small probe gives low polarisation when free and higher when bound to something large.

Numbered stars: 1 amine (or outer) side, 2 acyl side, 3 side chain; on linkers, the order of the positions; unused ones are H or OH. Bridge positions count the residues as written; N and C are the ends. Square brackets hold non-standard residues; d marks the D form. Peptide text beside a SMILES is read from it. Pro(4S-SH) = O=C([C@@H]1C[C@H](S[*:3])CN1[*:1])[*:2]; Trp(6-Cl) = N[C@@H](Cc1c[nH]c2cc(Cl)ccc12)C(=O)O; Oic = O=C(O)[C@@H]1C[C@@H]2CCCC[C@@H]2N1; Gly(octyl) = CCCCCCCC[C@H](N)C(=O)O; Cha = N[C@@H](CC1CCCCC1)C(=O)O; Orn = NCCC[C@H](N)C(=O)O

In the case of `CC(C)[C@@H]1NC(=O)[C@@H]2CSSC[C@H](NC(=O)[C@H](CC(=O)O)NC(=O)[C@@H]3CCCN3C(=O)[C@H]3CCCN3C1=O)C(=O)N[C@@H](Cc1ccccc1)C(=O)N[C@H](Cc1c[nH]c3ccccc13)C(=O)N[C@@H](CCCN)C(=O)N[C@@H](Cc1ccc(O)cc1)C(=O)N2` [compound 32] (cyclo(DCF[dW][Orn]YCV[dP]P); disulfide 2-7), the GI50 at 48 h in “in vitro [1]” and in the data set “in vitro [2]” was greater than 50 µM each time. Besides, the “Hemolysis at 100 μM [%]” value in data set [3] is listed as 0%. The “Plasmastability human pl. T1/2” value in data set [4] worked out at 4 h. Besides, the “Plasmastability mouse pl. T1/2” value in data set [5] was determined as 4 h.

B1: Ex. 13 (peptide)
peptide: cyclo(FE[Trp(6-Cl)]LDWAF[dP]P)
SMILES: CC(C)C[C@@H]1NC(=O)[C@H](Cc2c[nH]c3cc(Cl)ccc23)NC(=O)[C@H](CCC(=O)O)NC(=O)[C@H](Cc2ccccc2)NC(=O)[C@@H]2CCCN2C(=O)[C@H]2CCCN2C(=O)[C@H](Cc2ccccc2)NC(=O)[C@H](C)NC(=O)[C@H](Cc2c[nH]c3ccccc23)NC(=O)[C@H](CC(=O)O)NC1=O
notes: cyclo(-P1..P8-template-)
Take B1: the affinity with NCoA-1 corresponds to a Ki of 2 µM.

B2: Ex. 6 (peptide)
peptide: cyclo(FE[Trp(6-Cl)]LA[Gly(octyl)]EF[dP]P)
SMILES: CCCCCCCC[C@@H]1NC(=O)[C@H](C)NC(=O)[C@H](CC(C)C)NC(=O)[C@H](Cc2c[nH]c3cc(Cl)ccc23)NC(=O)[C@H](CCC(=O)O)NC(=O)[C@H](Cc2ccccc2)NC(=O)[C@@H]2CCCN2C(=O)[C@H]2CCCN2C(=O)[C@H](Cc2ccccc2)NC(=O)[C@H](CCC(=O)O)NC1=O
notes: cyclo(-P1..P8-template-)
B2: the Ki (in general, the dissociation constant of the complex between target and ligand, obtained from inhibition or displacement) with NCoA-1 came to 3.6 µM.

B3: Ex. 14 (peptide)
peptide: cyclo(FA[Trp(6-Cl)]LDWEF[dP]P)
SMILES: CC(C)C[C@@H]1NC(=O)[C@H](Cc2c[nH]c3cc(Cl)ccc23)NC(=O)[C@H](C)NC(=O)[C@H](Cc2ccccc2)NC(=O)[C@@H]2CCCN2C(=O)[C@H]2CCCN2C(=O)[C@H](Cc2ccccc2)NC(=O)[C@H](CCC(=O)O)NC(=O)[C@H](Cc2c[nH]c3ccccc23)NC(=O)[C@H](CC(=O)O)NC1=O
notes: cyclo(-P1..P8-template-)
In the data set with NCoA-1, B3 showed a Ki of 1.4 µM.

B4: Ex. 1 (peptide)
peptide: cyclo(FE[Trp(6-Cl)]LAWEF[dP]P)
SMILES: CC(C)C[C@@H]1NC(=O)[C@H](Cc2c[nH]c3cc(Cl)ccc23)NC(=O)[C@H](CCC(=O)O)NC(=O)[C@H](Cc2ccccc2)NC(=O)[C@@H]2CCCN2C(=O)[C@H]2CCCN2C(=O)[C@H](Cc2ccccc2)NC(=O)[C@H](CCC(=O)O)NC(=O)[C@H](Cc2c[nH]c3ccccc23)NC(=O)[C@H](C)NC1=O
notes: cyclo(-P1..P8-template-)
In turn, B4 had an inhibition constant Ki with NCoA-1 of 0.7 µM.

B5: Ex. 5 (peptide)
peptide: cyclo(FT[Trp(6-Cl)]LAWEF[dP][Pro(4S-SH)])
SMILES: CC(C)C[C@@H]1NC(=O)[C@H](Cc2c[nH]c3cc(Cl)ccc23)NC(=O)[C@H]([C@@H](C)O)NC(=O)[C@H](Cc2ccccc2)NC(=O)[C@@H]2C[C@H](S)CN2C(=O)[C@H]2CCCN2C(=O)[C@H](Cc2ccccc2)NC(=O)[C@H](CCC(=O)O)NC(=O)[C@H](Cc2c[nH]c3ccccc23)NC(=O)[C@H](C)NC1=O
notes: cyclo(-P1..P8-template-)
As to B5, the affinity with NCoA-1, expressed as Ki, was 3.8 µM.

B6: Ex. 18 (peptide)
peptide: cyclo(FE[Trp(6-Cl)]LDAEF[dP]P)
SMILES: CC(C)C[C@@H]1NC(=O)[C@H](Cc2c[nH]c3cc(Cl)ccc23)NC(=O)[C@H](CCC(=O)O)NC(=O)[C@H](Cc2ccccc2)NC(=O)[C@@H]2CCCN2C(=O)[C@H]2CCCN2C(=O)[C@H](Cc2ccccc2)NC(=O)[C@H](CCC(=O)O)NC(=O)[C@H](C)NC(=O)[C@H](CC(=O)O)NC1=O
notes: cyclo(-P1..P8-template-)
In turn, B6 had a Ki with NCoA-1 of 3.3 µM.

B7: Ex. 25 (peptide)
peptide: cyclo([Cha]EWLAWEF[dP]P)
SMILES: CC(C)C[C@@H]1NC(=O)[C@H](Cc2c[nH]c3ccccc23)NC(=O)[C@H](CCC(=O)O)NC(=O)[C@H](CC2CCCCC2)NC(=O)[C@@H]2CCCN2C(=O)[C@H]2CCCN2C(=O)[C@H](Cc2ccccc2)NC(=O)[C@H](CCC(=O)O)NC(=O)[C@H](Cc2c[nH]c3ccccc23)NC(=O)[C@H](C)NC1=O
notes: cyclo(-P1..P8-template-)
Molecule B7 gave an inhibition constant (Ki) with NCoA-1 of 6 µM.

B8: Ex. 3 (peptide)
peptide: cyclo(FEWLAWEW[dP][Oic])
SMILES: CC(C)C[C@@H]1NC(=O)[C@H](Cc2c[nH]c3ccccc23)NC(=O)[C@H](CCC(=O)O)NC(=O)[C@H](Cc2ccccc2)NC(=O)[C@@H]2C[C@@H]3CCCC[C@@H]3N2C(=O)[C@H]2CCCN2C(=O)[C@H](Cc2c[nH]c3ccccc23)NC(=O)[C@H](CCC(=O)O)NC(=O)[C@H](Cc2c[nH]c3ccccc23)NC(=O)[C@H](C)NC1=O
notes: cyclo(-P1..P8-template-)
As to B8, in the data set with NCoA-1, the inhibition constant (Ki) came to 6.2 µM.

B9: Ex. 4 (peptide)
peptide: cyclo(FEWL[dA]WEF[dP]P)
SMILES: CC(C)C[C@@H]1NC(=O)[C@H](Cc2c[nH]c3ccccc23)NC(=O)[C@H](CCC(=O)O)NC(=O)[C@H](Cc2ccccc2)NC(=O)[C@@H]2CCCN2C(=O)[C@H]2CCCN2C(=O)[C@H](Cc2ccccc2)NC(=O)[C@H](CCC(=O)O)NC(=O)[C@H](Cc2c[nH]c3ccccc23)NC(=O)[C@@H](C)NC1=O
notes: cyclo(-P1..P8-template-)
With B9, in the data set with NCoA-1, the affinity corresponds to a Ki of 15 µM.

B10: Ex. 26 (peptide)
peptide: cyclo([Cha]EWLAWE[Cha][dP]P)
SMILES: CC(C)C[C@@H]1NC(=O)[C@H](Cc2c[nH]c3ccccc23)NC(=O)[C@H](CCC(=O)O)NC(=O)[C@H](CC2CCCCC2)NC(=O)[C@@H]2CCCN2C(=O)[C@H]2CCCN2C(=O)[C@H](CC2CCCCC2)NC(=O)[C@H](CCC(=O)O)NC(=O)[C@H](Cc2c[nH]c3ccccc23)NC(=O)[C@H](C)NC1=O
notes: cyclo(-P1..P8-template-)
For B10, in the data set with NCoA-1, the affinity corresponds to a Ki of 7.7 µM.
